This passage reports Kd, fold change of Kd with 2 uM (CA)20 RNA against no RNA and fold reduction of affinity with 2 uM (GA)20 RNA against no RNA results from doi:10.1101/2021.06.03.446896.

In the experiment the target is Cy5-labelled 46w60 mononucleosome (histone octamer on DNA). In words: MST.

A value given as a limit tells only on which side of the number the result lay.

One may read the Kd as the equilibrium constant for the complex coming apart. Read a high Kd as weaker binding. The substance “human CHD4 (from UniProt Q14839 1-1912) (enzyme)” gave a Kd of 41 nM, a fold change of Kd with 2 uM (CA)20 RNA against no RNA below 2 fold and a fold reduction of affinity with 2 uM (GA)20 RNA against no RNA of 20 fold.
